For assay [1], the target named is T1, recombinant mUHRF1 V2 (mouse).
T1 chain: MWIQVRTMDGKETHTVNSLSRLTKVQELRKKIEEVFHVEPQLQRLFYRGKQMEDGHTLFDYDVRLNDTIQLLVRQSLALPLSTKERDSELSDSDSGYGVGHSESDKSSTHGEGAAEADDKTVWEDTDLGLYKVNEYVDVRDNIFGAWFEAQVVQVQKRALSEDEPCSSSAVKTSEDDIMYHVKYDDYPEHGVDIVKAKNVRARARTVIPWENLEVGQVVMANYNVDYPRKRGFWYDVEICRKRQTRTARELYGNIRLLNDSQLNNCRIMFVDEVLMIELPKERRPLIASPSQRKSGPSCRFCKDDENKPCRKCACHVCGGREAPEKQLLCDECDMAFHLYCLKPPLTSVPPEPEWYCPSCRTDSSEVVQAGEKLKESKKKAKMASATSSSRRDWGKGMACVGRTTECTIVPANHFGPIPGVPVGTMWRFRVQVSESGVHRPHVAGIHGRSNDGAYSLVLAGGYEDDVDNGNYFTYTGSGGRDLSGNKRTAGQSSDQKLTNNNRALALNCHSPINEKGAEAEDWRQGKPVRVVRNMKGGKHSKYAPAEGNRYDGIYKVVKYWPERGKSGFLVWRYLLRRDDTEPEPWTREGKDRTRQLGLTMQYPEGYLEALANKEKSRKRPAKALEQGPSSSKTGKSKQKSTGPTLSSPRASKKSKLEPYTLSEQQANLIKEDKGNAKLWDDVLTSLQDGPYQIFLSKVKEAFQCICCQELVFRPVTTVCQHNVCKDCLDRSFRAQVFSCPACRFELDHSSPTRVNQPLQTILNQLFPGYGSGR
As to the kind of experiment: MST.

The target in assay [2] is T2, recombinant hUHRF1 (human, UniProt Q96T88-1 1-793).
T2 chain: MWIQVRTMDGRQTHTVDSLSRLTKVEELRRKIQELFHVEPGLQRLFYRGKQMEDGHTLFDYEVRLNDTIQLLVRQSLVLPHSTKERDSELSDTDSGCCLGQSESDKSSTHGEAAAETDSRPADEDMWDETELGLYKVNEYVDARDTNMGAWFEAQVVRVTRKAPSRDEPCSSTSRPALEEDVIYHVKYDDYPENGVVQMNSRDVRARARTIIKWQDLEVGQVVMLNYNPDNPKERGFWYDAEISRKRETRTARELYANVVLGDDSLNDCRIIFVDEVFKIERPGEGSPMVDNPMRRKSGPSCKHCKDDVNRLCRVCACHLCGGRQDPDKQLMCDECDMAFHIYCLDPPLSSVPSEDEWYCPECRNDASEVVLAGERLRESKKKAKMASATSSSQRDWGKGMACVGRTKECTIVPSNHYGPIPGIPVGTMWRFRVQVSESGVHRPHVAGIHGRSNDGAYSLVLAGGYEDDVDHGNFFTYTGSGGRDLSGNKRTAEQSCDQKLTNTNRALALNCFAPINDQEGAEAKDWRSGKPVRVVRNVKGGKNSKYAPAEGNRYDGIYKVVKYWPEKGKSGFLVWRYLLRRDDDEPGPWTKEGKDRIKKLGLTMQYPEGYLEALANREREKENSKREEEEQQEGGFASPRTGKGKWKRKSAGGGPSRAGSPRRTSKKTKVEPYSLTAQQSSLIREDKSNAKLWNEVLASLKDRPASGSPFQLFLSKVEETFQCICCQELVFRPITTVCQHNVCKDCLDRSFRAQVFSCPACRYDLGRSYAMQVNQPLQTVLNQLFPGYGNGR
As to the kind of experiment: MST.

For assay [3], the target named is T3, recombinant mUHRF1 V1 (mouse, UniProt Q8VDF2 1-782).
T3 chain: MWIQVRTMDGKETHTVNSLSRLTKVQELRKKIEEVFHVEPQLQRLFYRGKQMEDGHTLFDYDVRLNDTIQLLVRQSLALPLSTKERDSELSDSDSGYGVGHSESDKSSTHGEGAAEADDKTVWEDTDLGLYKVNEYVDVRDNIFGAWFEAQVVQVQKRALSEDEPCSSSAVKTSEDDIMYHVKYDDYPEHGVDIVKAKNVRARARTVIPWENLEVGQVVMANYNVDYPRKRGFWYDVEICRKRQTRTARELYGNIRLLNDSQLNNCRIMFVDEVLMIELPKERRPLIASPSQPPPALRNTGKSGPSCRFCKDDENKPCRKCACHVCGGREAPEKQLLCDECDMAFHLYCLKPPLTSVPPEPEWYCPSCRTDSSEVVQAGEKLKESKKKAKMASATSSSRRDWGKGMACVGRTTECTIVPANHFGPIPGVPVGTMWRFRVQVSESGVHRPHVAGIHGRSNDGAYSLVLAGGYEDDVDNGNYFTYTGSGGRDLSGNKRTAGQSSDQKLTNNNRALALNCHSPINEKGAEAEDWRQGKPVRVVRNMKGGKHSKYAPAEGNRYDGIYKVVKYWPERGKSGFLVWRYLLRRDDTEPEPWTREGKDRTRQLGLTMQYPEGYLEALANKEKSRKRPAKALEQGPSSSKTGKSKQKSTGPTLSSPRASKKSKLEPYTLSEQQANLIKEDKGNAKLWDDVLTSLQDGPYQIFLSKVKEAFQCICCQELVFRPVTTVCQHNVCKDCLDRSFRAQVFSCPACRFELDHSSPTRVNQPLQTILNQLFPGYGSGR
Nature of the assay: MST.

Assay [4] addresses T1, recombinant mUHRF1 V2. As to the kind of experiment: MST; + 100-fold molar excess PI5P.
In assay [5] the target is T2, recombinant hUHRF1. Nature of the assay: MST; + 100-fold molar excess PI5P.
Assay [6] concerns the target T3, recombinant mUHRF1 V1. Nature of the assay: MST; + 100-fold molar excess PI5P.

As usually defined, the Kd is the constant that tells how readily two partners part at equilibrium. For ARTKQTARKSTGGKA (trimethyl-lysine at K9) [H3K9me3 peptide (titrated in MST)], the Kd in assay [1] came out at 4000 nM; in assay [2] it was 1500 nM; in assay [3], 1400 nM; in assay [4] it was 8100 nM; in assay [5], 80 nM; in assay [6] it was 2600 nM.

(Values after publication PMC7430637 (2020).)
